In PMC2133036 (The Journal of Cell Biology, 1998):
Where “and” joins values, the source holds several entries; their conditions need not be identical. Equal entries are not always repeated.

Biological target: T1, Vma22p (S. cerevisiae, UniProt P38784 1-181)
T1 sequence (looked up): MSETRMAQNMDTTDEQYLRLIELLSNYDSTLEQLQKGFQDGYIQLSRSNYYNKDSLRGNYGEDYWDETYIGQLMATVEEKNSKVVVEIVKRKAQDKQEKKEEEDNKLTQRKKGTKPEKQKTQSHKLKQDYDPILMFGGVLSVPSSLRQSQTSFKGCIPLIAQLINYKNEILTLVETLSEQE
Experiment: cross-linking

B1: Vph1p, the 100-kD integral membrane subunit of the V-ATPase (natural protein, S. cerevisiae, UniProt P32563 1-840, looked up)
chain: MAEKEEAIFRSAEMALVQFYIPQEISRDSAYTLGQLGLVQFRDLNSKVRAFQRTFVNEIRRLDNVERQYRYFYSLLKKHDIKLYEGDTDKYLDGSGELYVPPSGSVIDDYVRNASYLEERLIQMEDATDQIEVQKNDLEQYRFILQSGDEFFLKGDNTDSTSYMDEDMIDANGENIAAAIGASVNYVTGVIARDKVATLEQILWRVLRGNLFFKTVEIEQPVYDVKTREYKHKNAFIVFSHGDLIIKRIRKIAESLDANLYDVDSSNEGRSQQLAKVNKNLSDLYTVLKTTSTTLESELYAIAKELDSWFQDVTREKAIFEILNKSNYDTNRKILIAEGWIPRDELATLQARLGEMIARLGIDVPSIIQVLDTNHTPPTFHRTNKFTAGFQSICDCYGIAQYREINAGLPTIVTFPFMFAIMFGDMGHGFLMTLAALSLVLNEKKINKMKRGEIFDMAFTGRYIILLMGVFSMYTGFLYNDIFSKTMTIFKSGWKWPDHWKKGESITATSVGTYPIGLDWAWHGTENALLFSNSYKMKLSILMGFIHMTYSYFFSLANHLYFNSMIDIIGNFIPGLLFMQGIFGYLSVCIVYKWAVDWVKDGKPAPGLLNMLINMFLSPGTIDDELYPHQAKVQVFLLLMALVCIPWLLLVKPLHFKFTHKKKSHEPLPSTEADASSEDLEAQQLISAMDADDAEEEEVGSGSHGEDFGDIMIHQVIHTIEFCLNCVSHTASYLRLWALSLAHAQLSSVLWTMTIQIAFGFRGFVGVFMTVALFAMWFALTCAVLVLMEGTSAMLHSLRLHWVESMSKFFVGEGLPYEPFAFEYKDMEVAVASASSSASS
  half-life of the interaction in cells (pulse-chase, cross-linkable Vph1p): < 5 min and ~5 min
